Test results published in US20230234987A1.

What was measured:
[1] = biological target: His-tagged PP1 (protein phosphatase 1, catalytic subunit); assay: plate binding curve: MYPT1 1-299 on His-PP1 on nickel wells, streptavidin-Alexa Fluor 488
[2] = biological target: His-tagged PP1 (protein phosphatase 1, catalytic subunit); assay: as above; remark: listed apart in the source
[3] = biological target: His-tagged PP1 (protein phosphatase 1, catalytic subunit); assay: plate binding curve: biotinylated peptide on His-PP1 on nickel wells, streptavidin-Alexa Fluor 488
[4] = biological target: His-tagged PP1 (protein phosphatase 1, catalytic subunit); assay: competition plate assay: MYPT1 1-299 binding to His-PP1 with increasing PIP250; competitor MYPT1 1-299

Kd [1] [µM] | Kd [2] [µM] | Kd [3] [µM] | Ki [4] [µM] | Substance
0.049 | 0.05 |  |  | amino acids 1-299 of MYPT1
 |  | 1280 |  | PIP251 (H-rrakvktkkrk-NH2) (peptide)
 |  | 610 | 155 | PIP250 (H-rrfkvktkkrk-NH2) (peptide)
 |  | 724 |  | PIP252 (H-rrfkaktkkrk-NH2) (peptide)
